Test results: article PMC7881018, “Granulovirus PK-1 kinase activity relies on a side-to-side dimerization mode centered on the regulatory αC helix” (Nature Communications, 2021)

Tests used:
[1] = biological target: PK-1 K49A, full length (Cydia pomonella granulovirus (CpGV)); assay: SEC
CpGV PK-1 = biological target: T1, CpGV PK-1 (Cydia pomonella granulosis virus (isolate Mexican), UniProt Q91F41); assay: X-ray crystal structure, […] A; type: binding; settings: co-crystallised with 1 mM AMP and 10 mM MnCl2; ATP site; 18 C
T1 construct: gene orf3 pk-1; full-length (residues 1-279), E. coli expressed; assay protein codon-optimised, His6 tag cut by TEV; crystal protein amplified from genomic DNA, TEV-cleavable His6-MBP tag; homodimer 66 kDa

[2] = biological target: PK-1 15-279, truncated PK-1 lacking the domain-swapped N-terminal helix (Cydia pomonella granulovirus (CpGV)); assay: SEC
[3] = biological target: PK-1 D141N, full length (Cydia pomonella granulovirus (CpGV)); assay: SEC
[4] = biological target: Cydia pomonella granulovirus protein kinase-1 (PK-1), full-length wild type (pPROEX Htb construct) (Cydia pomonella granulovirus (CpGV)); assay: AUC; sedimentation velocity, 0.9 mg/mL (27 μM), 20 °C, 50,000 rpm, 20 mM HEPES pH 7.5, 200 mM NaCl; c(s) model
[5] = biological target: Cydia pomonella granulovirus protein kinase-1 (PK-1), full-length wild type (pPROEX Htb construct) (Cydia pomonella granulovirus (CpGV)); assay: SAXS with inline SEC; 5 mg/mL (152 μM) injected on Superdex 200 5/150 Increase, 20 mM HEPES pH 7.5, 200 mM NaCl, 5% glycerol, 12 °C; scatter compared with the crystal dimer (CRYSOL), mass by SAXSMoW2
[6] = biological target: Cydia pomonella granulovirus protein kinase-1 (PK-1), full-length wild type (pPROEX Htb construct) (Cydia pomonella granulovirus (CpGV)); assay: SEC
[7] = biological target: PK-1 D160N, full length (Cydia pomonella granulovirus (CpGV)); assay: SEC
[8] = biological target: PK-1 E217DNEEE>QNNQQQ, acidic αF-αG loop mutant (Cydia pomonella granulovirus (CpGV)); assay: SEC

## PK-1 K49A, full length (enzyme)
[1]
  stoichiometry N: 2

## Nc1ncnc2c1ncn2[C@@H]1O[C@H](COP(=O)(O)O)[C@@H](O)[C@H]1O [AMP]
CpGV PK-1
  X-ray crystal structure, 2.01 A: crystal structure of PK-1 from C. pomonella granulovirus (CpGV) in complex with AMP

## PK-1 15-279, truncated PK-1 lacking the domain-swapped N-terminal helix (domain or fragment)
[2]
  stoichiometry N: 2

## PK-1 D141N, full length (enzyme)
[3]
  stoichiometry N: 2

## Cydia pomonella granulovirus protein kinase-1 (PK-1), full-length wild type (pPROEX Htb construct) (enzyme)
[4]
  stoichiometry N: 2
[5]
  stoichiometry N: 2
[6]
  stoichiometry N: 2

## PK-1 D160N, full length (enzyme)
[7]
  stoichiometry N: 2

## PK-1 E217DNEEE>QNNQQQ, acidic αF-αG loop mutant (enzyme)
[8]
  stoichiometry N: 2
